This note sets out measurements from PMC4157633 (Laboratory investigation; a journal of technical methods …, 2014).

A word on the EC50: it is the concentration that produces a half-maximal response. A high value points to lower potency in that assay.

B1: human carcinoembryonic antigen (hCEA) protein, purified (natural protein, UniProt P06731 35-685, looked up)
chain: KLTIESTPFNVAEGKEVLLLVHNLPQHLFGYSWYKGERVDGNRQIIGYVIGTQQATPGPAYSGREIIYPNASLLIQNIIQNDTGFYTLHVIKSDLVNEEATGQFRVYPELPKPSISSNNSKPVEDKDAVAFTCEPETQDATYLWWVNNQSLPVSPRLQLSNGNRTLTLFNVTRNDTASYKCETQNPVSARRSDSVILNVLYGPDAPTISPLNTSYRSGENLNLSCHAASNPPAQYSWFVNGTFQQSTQELFIPNITVNNSGSYTCQAHNSDTGLNRTTVTTITVYAEPPKPFITSNNSNPVEDEDAVALTCEPEIQNTTYLWWVNNQSLPVSPRLQLSNDNRTLTLLSVTRNDVGPYECGIQNELSVDHSDPVILNVLYGPDDPTISPSYTYYRPGVNLSLSCHAASNPPAQYSWLIDGNIQQHTQELFISNITEKNSGLYTCQANNSASGHSRTTVKTITVSAELPKPSISSNNSKPVEDKDAVAFTCEPEAQNTTYLWWVNGQSLPVSPRLQLSNGNRTLTLFNVTRNDARAYVCGIQNSVSANRSDPVTLDVLYGPDTPIISPPDSSYLSGANLNLSCHSASNPSPQYSWRINGIPQQHTQVLFIAKITPNNNGTYACFVSNLATGRNNSIVKSITVSASGTSPGLSA

Test [1] concerns the target anti-EGFR VHH122-fiber-fibritin chimera displayed on the AdVHH122Luc vector (human adenovirus serotype 5 | …). The test can be described thus: ELISA. For orientation: ELISA stands for enzyme-linked immunosorbent assay.
In test [2] the target is B1. Description: ELISA.

Consider B1, for which, in test [1], the binding result is reported as “no binding”.

B2: anti-hCEA VHH JJB-B5, thioredoxin fusion protein (VHH)
VHH: QVQLVETGGGLVQPGGSLRPSCTASGSIFSIYAMGWYRQASGKQRELVALITRDEVFNYADSVKGRFTISRDNAKDTVYLQMNSLKPEDTAVYYCWVETVNDHYNSGVEDYWGQGTQVTVSS
In turn, B2 came in with an EC50 in test [2] of roughly 50000 pM.

B3: anti-hCEA VHH JJB-D1, thioredoxin fusion protein (VHH)
VHH: QVQLVESGGLVQAGGSLRPSCAASGSIFLQNAMGWYRQVPGKQRELVAAITSVDSTNYADSVKGRFTISRDNAKNTVYLQMNSLKPEDTAVYYCNAPWNSDYHWGKGTLVTVSS
As for B3, the EC50 in test [2] is roughly 1000 pM.

B4: anti-hCEA VHH JJB-B2, thioredoxin fusion protein (VHH)
VHH: QVQLVETGGGLVQPGGSLRLSCAASESIFSTYAMGWYRQAPGKQRELVAAITTNDIANYADSVKGRFTISRDNAKNTVYLQMNSLNPEDTAVYYCNAIFPPYNYWGQGTQVTVSS
B4: the EC50 in test [2] was roughly 200 pM.

B5: anti-hCEA VHH JJB-A3, thioredoxin fusion protein (VHH)
VHH: QVQLVETGGGLVQPGGSLRLSCAASGRISDINAMGWYRQAPGKQRELVAAITSVGSNYVDSVKGRFTISKDNAKNTVYLQMYSLNPEDTAVYYCNTQCGTWLVCDGRDQWGKGTLVTVSS
Consider B5, for which the EC50 in test [2] was roughly 150 pM.
